Measured values as given in article PMC7883444.

Target: HRD1 (HMG-CoA reductase degradation protein 1, synoviolin) (UniProt Q86TM6)
Assay: anti-Myc co-IP, anti-Flag blot
Details: reference: WT Flag-PFKP; sites S386

PFKP (platelet isoform of phosphofructokinase) (from UniProt Q01813) Flag-PFKP S386A
binding against the reference: stronger
